# Reference: patent US20190211057A1 (NATIONAL YANG MING UNIVERSITY, published 2019)
# Where a chain is given by its changes, count along the chain named. In names and notes the source's numbering stands.
# B1: RGD4C-yCD/UPRT (other)
# chain: MACDCRGDCFCVTGGMASKWDQKGMDIAYEEAALGYKEGGVPIGGCLINNKDGSVLGRGHNMRFQKGSATLHGEISTLENCGRLEGKVYKDTTLYTTLSPCDMCTGAIIMYGIPRCVVGENVNFKSKGEKYLQTRGHEVVVVDDERCKKIMKQFIDERPQDWFEDIGEASEPFKNVYLLPQTNQLLGLYTIIRNKNTTRPDFIFYSDRIIRLLVEEGLNHLPVQKQIVETDTNENFEGVSFMGKICGVSIVRAGESMEQGLRDCCRSVRIGKILIQRDEETALPKLFYEKLPEDISERYVFLLDPMLATGGSAIMATEVLIKRGVKPERIYFLNLICSKEGIEKYHAAFPEVRIVTGALDRGLDENKYLVPGLGDFGDRYYCVLEHHHHHH
# notes: Fusion of the RGD4C peptide, yCD and yeast UPRT; His6-tagged recombinant protein; also called RGD4C-yCD/UPRPT
# B2: RGD4C-EcCD_WT (other)
# chain: MGCDCRGDCFCMSNNALQTIINARLPGEEGLWQIHLQDGKISAIDAQSGVMPITENSLDAEQGLVIPPFVEPHIHLDTTQTAGQPNWNQSGTLFEGIERWAERKALLTHDDVKQRAWQTLKWQIANGIQHVRTHVDVSDATLTALKAMLEVKQEVAPWIDLQIVAFPQEGILSYPNGEALLEEALRLRADVVGAIPHFEFTREYGVESLHKTFALAQKYDRLIDVHCDEIDDEQSRFVETVAALAHHEGMGARVTASHTTAMHSYNGAYTSRLFRLLKMSGINFVANPLVNIHLQGRFDTYPKRRGITRVKEMLESGINVCFGHDDVFDPWYPLGTANMLQVLHMGLHVCQLMGYGQINDGLNLITHHSARTLNLQDYGIAAGNSANLIILPAENGFDALRRQVPVRYSVRGGKVIASTQPAQTTVYLEQPEAIDYKRLEHHHHHH
# notes: Fusion of the RGD4C peptide with E. coli cytosine deaminase; His6-tagged
# B3: RGD4C-EcCD_D314A (other)
# chain: B2 chain with D326A
# notes: Fusion of the RGD4C peptide with the E. coli cytosine deaminase D314A mutant; His6-tagged
# B4: yCD/UPRT (enzyme)
# chain: MVVTGGMASKWDQKGMDIAYEEAALGYKEGGVPIGGCLINNKDGSVLGRGHNMRFQKGSATLHGEISTLENCGRLEGKVYKDTTLYTTLSPCDMCTGAIIMYGIPRCVVGENVNFKSKGEKYLQTRGHEVVVVDDERCKKIMKQFIDERPQDWFEDIGEASEPFKNVYLLPQTNQLLGLYTIIRNKNTTRPDFIFYSDRIIRLLVEEGLNHLPVQKQIVETDTNENFEGVSFMGKICGVSIVRAGESMEQGLRDCCRSVRIGKILIQRDEETALPKLFYEKLPEDISERYVFLLDPMLATGGSAIMATEVLIKRGVKPERIYFLNLICSKEGIEKYHAAFPEVRIVTGALDRGLDENKYLVPGLGDFGDRYYCVLEHHHHHH
# notes: Control fusion without RGD4C
# B5: EcCD_WT (enzyme, E. coli)
# chain: MSNNALQTIINARLPGEEGLWQIHLQDGKISAIDAQSGVMPITENSLDAEQGLVIPPFVEPHIHLDTTQTAGQPNWNQSGTLFEGIERWAERKALLTHDDVKQRAWQTLKWQIANGIQHVRTHVDVSDATLTALKAMLEVKQEVAPWIDLQIVAFPQEGILSYPNGEALLEEALRLRADVVGAIPHFEFTREYGVESLHKTFALAQKYDRLIDVHCDEIDDEQSRFVETVAALAHHEGMGARVTASHTTAMHSYNGAYTSRLFRLLKMSGINFVANPLVNIHLQGRFDTYPKRRGITRVKEMLESGINVCFGHDDVFDPWYPLGTANMLQVLHMGLHVCQLMGYGQINDGLNLITHHSARTLNLQDYGIAAGNSANLIILPAENGFDALRRQVPVRYSVRGGKVIASTQPAQTTVYLEQPEAIDYKRLEHHHHHH
# notes: Control without RGD4C; also called E. coli cytosine deaminase (EcCD) wild type
# B6: EcCD_D314A (enzyme)
# chain: B5 chain with D315A
# notes: Control without RGD4C; also called E. coli cytosine deaminase D314A mutant
# B7: yeast cytosine deaminase (yCD) (enzyme)
# chain: MVVTGGMASKWDQKGMDIAYEEAALGYKEGGVPIGGCLINNKDGSVLGRGHNMRFQKGSATLHGEISTLENCGRLEGKVYKDTTLYTTLSPCDMCTGAIIMYGIPRCVVGENVNFKSKGEKYLQTRGHEVVVVDDERCKKIMKQFIDERPQDWFEDIGELEHHHHHH
# notes: Recombinant, from pET28a(+), detected by its His6 tag
# B8: DTPA-RGD4C-yCD (other)
# chain: MACDCRGDCFCVTGGMASKWDQKGMDIAYEEAALGYKEGGVPIGGCLINNKDGSVLGRGHNMRFQKGSATLHGEISTLENCGRLEGKVYKDTTLYTTLSPCDMCTGAIIMYGIPRCVVGENVNFKSKGEKYLQTRGHEVVVVDDERCKKIMKQFIDERPQDWFEDIGELEHHHHHH
# modifications: DTPA on primary amines, 0.94 DTPA per protein on average
# Legend:
# [1] = biological target: T1, integrin αvβ3 receptor on cells (HUVEC, U87MG, MCF-7, ES-2-luc) (human, UniProt P06756 31-1048; P05106 27-788); experiment: cell-based or functional assay
# T1 sequence (P06756 31-1048, chain 1 of 2): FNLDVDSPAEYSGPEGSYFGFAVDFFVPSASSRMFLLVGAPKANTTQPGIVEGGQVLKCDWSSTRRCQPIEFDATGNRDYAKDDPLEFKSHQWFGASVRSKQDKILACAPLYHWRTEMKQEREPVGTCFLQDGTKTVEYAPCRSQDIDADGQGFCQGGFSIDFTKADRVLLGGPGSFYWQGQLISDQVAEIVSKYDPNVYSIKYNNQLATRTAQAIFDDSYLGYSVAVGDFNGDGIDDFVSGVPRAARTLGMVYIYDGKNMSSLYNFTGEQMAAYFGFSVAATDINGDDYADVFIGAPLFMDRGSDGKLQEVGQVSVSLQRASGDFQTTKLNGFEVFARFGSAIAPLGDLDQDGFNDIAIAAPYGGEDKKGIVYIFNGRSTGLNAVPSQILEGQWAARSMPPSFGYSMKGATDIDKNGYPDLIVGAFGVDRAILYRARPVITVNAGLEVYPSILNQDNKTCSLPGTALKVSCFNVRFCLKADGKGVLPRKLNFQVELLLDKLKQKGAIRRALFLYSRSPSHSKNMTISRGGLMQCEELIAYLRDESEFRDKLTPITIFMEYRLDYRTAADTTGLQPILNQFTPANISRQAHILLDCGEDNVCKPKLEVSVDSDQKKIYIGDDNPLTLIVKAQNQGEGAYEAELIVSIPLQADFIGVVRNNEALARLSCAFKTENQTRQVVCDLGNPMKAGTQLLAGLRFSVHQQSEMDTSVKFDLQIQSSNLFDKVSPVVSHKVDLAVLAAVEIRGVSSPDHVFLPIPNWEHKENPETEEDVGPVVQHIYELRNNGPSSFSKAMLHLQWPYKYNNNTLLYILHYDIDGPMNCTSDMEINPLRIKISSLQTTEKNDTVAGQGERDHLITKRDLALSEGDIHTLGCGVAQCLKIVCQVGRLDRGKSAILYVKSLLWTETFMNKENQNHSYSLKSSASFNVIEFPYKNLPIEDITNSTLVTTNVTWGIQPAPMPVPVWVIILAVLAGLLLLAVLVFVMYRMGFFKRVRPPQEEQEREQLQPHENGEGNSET
# T1 sequence (P05106 27-788, chain 2 of 2): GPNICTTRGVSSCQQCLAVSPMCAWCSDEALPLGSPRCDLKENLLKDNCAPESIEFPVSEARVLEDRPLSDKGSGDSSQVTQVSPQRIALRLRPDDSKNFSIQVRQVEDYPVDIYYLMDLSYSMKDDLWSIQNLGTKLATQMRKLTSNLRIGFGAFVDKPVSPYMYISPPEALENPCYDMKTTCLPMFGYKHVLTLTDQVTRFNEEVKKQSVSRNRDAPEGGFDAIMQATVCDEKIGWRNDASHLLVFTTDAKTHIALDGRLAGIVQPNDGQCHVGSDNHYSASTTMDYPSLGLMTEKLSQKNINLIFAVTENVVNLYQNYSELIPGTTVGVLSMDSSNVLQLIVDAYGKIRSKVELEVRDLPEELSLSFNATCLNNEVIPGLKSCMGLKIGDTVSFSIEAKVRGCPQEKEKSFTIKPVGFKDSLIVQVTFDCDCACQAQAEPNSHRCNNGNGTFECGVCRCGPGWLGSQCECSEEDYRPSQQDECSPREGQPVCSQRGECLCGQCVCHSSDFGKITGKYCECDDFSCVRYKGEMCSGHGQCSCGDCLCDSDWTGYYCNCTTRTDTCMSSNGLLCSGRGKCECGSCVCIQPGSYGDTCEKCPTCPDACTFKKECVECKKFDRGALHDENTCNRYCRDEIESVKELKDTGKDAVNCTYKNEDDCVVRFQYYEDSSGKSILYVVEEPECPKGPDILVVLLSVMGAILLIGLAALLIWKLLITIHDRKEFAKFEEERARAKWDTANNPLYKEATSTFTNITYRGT
# [2] = biological target: T1, integrin αvβ3 receptor on cells (HUVEC, …); experiment: cell ELISA, HUVEC against MCF-7
# [3] = biological target: T1, integrin αvβ3 receptor on cells (HUVEC, …); experiment: cell ELISA, U87MG against MCF-7
# [4] = biological target: T1, integrin αvβ3 receptor on cells (HUVEC, …); experiment: cell ELISA on HUVEC cells, anti-His-HRP
# Source text: (§1) After reacted with anti-His-HRP antibody and TMB substrate, ELISA reader (OD450 nm) is used to detect the amount of recombinant protein bound to the cells, and the binding curve is drawn. The nonlinear curve of the prism software is used to make a diagram and calculate the dissociation constant (Kd).
# (§2) The anti-His6-Tag-HRP antibody and TMB show the color reagent to detect the amount of recombinant protein bound to the cell, then the dissociation constant Kd value of the recombinant protein and the integrin αᵥβ₃ receptor is calculated and a binding curve is drawn.
# [5] = biological target: T1, integrin αvβ3 receptor on cells (HUVEC, …); experiment: cell ELISA on U87MG cells, anti-His-HRP
# Source text: as §1, §2
# [6] = biological target: T1, integrin αvβ3 receptor on cells (HUVEC, …); experiment: cell ELISA on MCF-7 cells (low αvβ3 expression), anti-His-HRP
# Source text: as §1, §2
# integrin αvβ3 receptor [7] = biological target: T2, integrin αvβ3 receptor (UniProt P06756 31-992; P05106 27-718); experiment: ELISA on integrin αvβ3 receptor, anti-His6-HRP detection, curve fit
# T2 construct: also called αvβ3 integrin; αvβ3 integrin receptor
# T2 sequence (P06756 31-992, chain 1 of 2): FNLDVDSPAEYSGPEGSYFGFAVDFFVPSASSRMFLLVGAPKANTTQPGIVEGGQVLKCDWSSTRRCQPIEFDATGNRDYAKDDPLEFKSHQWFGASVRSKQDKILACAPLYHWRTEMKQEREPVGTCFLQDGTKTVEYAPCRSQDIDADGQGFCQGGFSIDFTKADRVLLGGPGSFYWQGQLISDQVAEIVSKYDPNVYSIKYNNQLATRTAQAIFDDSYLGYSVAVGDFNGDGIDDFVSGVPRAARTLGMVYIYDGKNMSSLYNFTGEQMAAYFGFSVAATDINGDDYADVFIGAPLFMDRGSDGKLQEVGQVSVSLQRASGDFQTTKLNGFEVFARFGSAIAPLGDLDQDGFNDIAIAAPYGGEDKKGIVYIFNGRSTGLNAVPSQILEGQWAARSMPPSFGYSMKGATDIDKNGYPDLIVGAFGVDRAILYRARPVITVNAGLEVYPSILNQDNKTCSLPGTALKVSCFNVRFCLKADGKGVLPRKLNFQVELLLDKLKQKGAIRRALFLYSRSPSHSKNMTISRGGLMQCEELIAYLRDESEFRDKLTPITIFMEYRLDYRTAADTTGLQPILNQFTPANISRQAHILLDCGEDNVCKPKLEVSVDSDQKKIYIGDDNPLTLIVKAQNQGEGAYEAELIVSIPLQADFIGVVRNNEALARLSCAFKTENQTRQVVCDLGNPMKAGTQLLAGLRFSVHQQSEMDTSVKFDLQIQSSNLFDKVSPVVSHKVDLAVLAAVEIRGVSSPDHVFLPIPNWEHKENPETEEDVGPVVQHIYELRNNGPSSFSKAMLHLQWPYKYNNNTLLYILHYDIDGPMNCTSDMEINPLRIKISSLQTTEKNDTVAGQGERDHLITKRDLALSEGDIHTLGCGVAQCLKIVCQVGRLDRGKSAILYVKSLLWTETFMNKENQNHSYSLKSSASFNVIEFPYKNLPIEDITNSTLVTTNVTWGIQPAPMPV
# T2 sequence (P05106 27-718, chain 2 of 2): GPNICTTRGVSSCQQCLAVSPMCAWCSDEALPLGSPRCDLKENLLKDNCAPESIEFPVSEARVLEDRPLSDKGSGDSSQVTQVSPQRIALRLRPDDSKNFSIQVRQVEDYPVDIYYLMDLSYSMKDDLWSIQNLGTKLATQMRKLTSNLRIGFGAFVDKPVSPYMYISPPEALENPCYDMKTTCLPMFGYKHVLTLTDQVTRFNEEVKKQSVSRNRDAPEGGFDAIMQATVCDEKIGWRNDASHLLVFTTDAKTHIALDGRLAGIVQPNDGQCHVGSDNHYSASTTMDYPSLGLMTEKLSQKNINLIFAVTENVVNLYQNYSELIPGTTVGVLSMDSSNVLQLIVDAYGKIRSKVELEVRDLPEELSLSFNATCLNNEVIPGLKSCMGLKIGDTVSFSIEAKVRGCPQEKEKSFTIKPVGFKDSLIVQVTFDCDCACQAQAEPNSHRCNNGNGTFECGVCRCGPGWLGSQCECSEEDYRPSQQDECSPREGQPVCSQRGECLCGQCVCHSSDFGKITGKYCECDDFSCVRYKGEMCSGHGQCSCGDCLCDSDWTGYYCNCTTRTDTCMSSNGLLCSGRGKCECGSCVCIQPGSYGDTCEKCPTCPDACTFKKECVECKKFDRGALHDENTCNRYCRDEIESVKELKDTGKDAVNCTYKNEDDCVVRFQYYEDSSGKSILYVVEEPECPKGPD
# Source text: (§3) The dissociation constant Kd is obtained by prism software with curve fitting method.
# [8] = biological target: T1, integrin αvβ3 receptor on cells (HUVEC, …); experiment: cell-based or functional assay; remark: listed apart in the source
# [9] = biological target: T1, integrin αvβ3 receptor on cells (HUVEC, …); experiment: cell-based or functional assay; remark: listed apart in the source
# integrin αvβ3 receptor [10] = biological target: T2, integrin αvβ3 receptor; experiment: ELISA on αvβ3 integrin receptor
# [11] = biological target: T1, integrin αvβ3 receptor on cells (HUVEC, …); experiment: cell ELISA on fixed HUVEC cells, anti-His6tag-HRP
# [12] = biological target: T1, integrin αvβ3 receptor on cells (HUVEC, …); experiment: cell ELISA on fixed U87MG cells, anti-His6tag-HRP
# [13] = biological target: T1, integrin αvβ3 receptor on cells (HUVEC, …); experiment: cell ELISA on fixed MCF-7 cells (low αvβ3 expression), anti-His6tag-HRP
# integrin αvβ3 receptor [14] = biological target: T2, integrin αvβ3 receptor; experiment: ELISA on integrin αvβ3 receptor, anti-His6-HRP; paragraph 61 says yCD and yCD/UPRT cannot be bound to integrin αvβ3
# Source text: as §3
# [15] = biological target: T1, integrin αvβ3 receptor on cells (HUVEC, …); experiment: immunofluorescence on U87MG and HUVEC cells, no anti-His6tag signal
# Source text: Immunofluorescence is used to observe the distribution of the protein bound with cell in the cell.
# integrin αvβ3 receptor [16] = biological target: T2, integrin αvβ3 receptor; experiment: ELISA on integrin αvβ3 receptor (repeats Table 14)
# integrin αvβ3 receptor [17] = biological target: T2, integrin αvβ3 receptor; experiment: ELISA on integrin αvβ3 receptor, one site-specific binding fit
# Source text: The curve and receptor binding ability parameters (see FIG. 19 and Table 14) are fitted by the binding ability of DTPA-modified protein and integrin αᵥβ₃ receptor through the One site-Specific binding formula in the Graph prism program.
binder,measurement,setting,value
B1,"IC50 of 5-FC, MTT cytotoxicity, HUVEC cells incubated with 500 nM protein then washed",[1],8.6 µM
same,"IC50 of 5-FC, MTT cytotoxicity, MCF-7 cells (low αvβ3) incubated with 500 nM protein then washed",[1],4340 µM
same,"IC50 of 5-FC, MTT cytotoxicity, U87MG cells incubated with 500 nM protein then washed",[1],5.1 µM
same,fold cell binding ability against MCF-7,[2],~6.9 fold
same,fold cell binding ability against MCF-7,[3],~5.8 fold
same,Kd,[4],0.0483 µM
same,Kd,[5],0.0578 µM
same,Kd,[6],0.335 µM
same,Kd,integrin αvβ3 receptor [7],0.0417 µM
B2,"IC50 of 5-FC, MTT cytotoxicity, HUVEC cells incubated with 50 nM protein then washed",[8],35.9 µM
same,"IC50 of 5-FC, MTT cytotoxicity, MCF-7 cells (low αvβ3) incubated with 50 nM protein then washed",[8],> 10000 µM
same,"IC50 of 5-FC, MTT cytotoxicity, U87MG cells incubated with 50 nM protein then washed",[8],44.1 µM
same,"protein reaction concentration IC50 of cytotoxic effect, MTT, HUVEC cells, 100 µM 5-FC",[9],0.0229 µM
same,"protein reaction concentration IC50 of cytotoxic effect, MTT, U87MG cells, 100 µM 5-FC",[9],0.0385 µM
same,fold binding ability against MCF-7,[2],16.1 fold
same,fold binding ability against MCF-7,[3],23.7 fold
same,Kd,integrin αvβ3 receptor [10],0.007 µM
same,Kd,[11],0.0203 µM
same,Kd,[12],0.0138 µM
same,Kd,[13],0.327 µM
B3,"IC50 of 5-FC, MTT cytotoxicity, HUVEC cells incubated with 50 nM protein then washed",[8],8.2 µM
same,"IC50 of 5-FC, MTT cytotoxicity, MCF-7 cells (low αvβ3) incubated with 50 nM protein then washed",[8],> 10000 µM
same,"IC50 of 5-FC, MTT cytotoxicity, U87MG cells incubated with 50 nM protein then washed",[8],5 µM
same,"protein reaction concentration IC50 of cytotoxic effect, MTT, HUVEC cells, 100 µM 5-FC",[9],0.0098 µM
same,"protein reaction concentration IC50 of cytotoxic effect, MTT, U87MG cells, 100 µM 5-FC",[9],0.004 µM
same,fold binding ability against MCF-7,[2],12.9 fold
same,fold binding ability against MCF-7,[3],19.9 fold
same,Kd,integrin αvβ3 receptor [10],0.0091 µM
same,Kd,[11],0.0233 µM
same,Kd,[12],0.0151 µM
same,Kd,[13],0.3 µM
B4,binding result,integrin αvβ3 receptor [14],no binding
B5,binding result,[15],no binding
B6,binding result,[15],no binding
B7,binding result,integrin αvβ3 receptor [14],no binding
B8,Kd,integrin αvβ3 receptor [16],0.0476 µM
same,Kd,integrin αvβ3 receptor [17],0.0476 µM
